From a protein production outcome set (Wang et al. 2014)

Experiment: label from the status in PepcDB records

Sequence	protein production
MRHLPYPLLGLFLALSSTGAALAGEQYYPLDKGSAPYAVAPSAQGAVWYGADGGHSLGRLDPTSGESVQVPLGEGARPRAIVSDESGNAWVLDSGLNAILRIGGERLGSERFPLPAKAAPAGLESAVFDDDGRLWFTGSRGFHGRLDPARRLVEVWPSPQGKAANGICVTPDGEVWYAQDDALVHVDPLDGSAERLPAPEGTKALRGIGADSIGRLWASDSGGARLYRYDPSDASWQSWPLPDSQARPDSLRVDAMDRVWLHDAASGALLRFDSEQATFRVLPSDRPAPGNALLGGRPGETWSAEPAADRLRVVRD	failed
MRHYETMFILKPTLVEEEIKSKIEFYKEVITKHHGVIETSLDMGMRNLAYEIKKHKRGYYYVAYFKAEPSMIVELERLYRINEDVLRFIVIKYESKKEVEAWHALVDRANKKPSHAKEKHEKTEHTHSHHTEEAESVGSHSE	failed
MRIAALFTCIIGVFMLATSVQAAQPADITRLSNGLTVLVLKDDRFPLASLRLYVHAGSAFETPEEAGISHLLEHMVFKGTVKRPKGQVARDVESVGGYLNAATSFDYTVYLTDMPSTQWKLGMDVLRDMAFEPALDPAELESEKDVVIAELQRGEDSPDSRIFQSLQAGTLKGTTYERPIIGYRETIRATTADTMRAYIRKHYQPQSMLLTVVGNVDPAEVRAEAERLFGGLTNDQNITPPAAIDARAFAHGPVVNVEHGPWKKVYLGVALPVPGLKALQAAQLDMLSQLLGGDPTALLYRTFKYEKQLVDDISVANYSFERVGMLYITAELDADKVETFWKELTTMLAGLKADAFTEQEFERARLNIEDGLYRSKETVAGLASKEGYFQFFSDGPQGEANYLQAVRDVERPQLEALIRDWLRPERLTVSVLLPEGTKAPALAATLKSTWPSKGKAAEEGNAAAVGKTETVDLGGGRKVVLIPDTTLPYTALDMVFSGGNALLDQNRQGLAALTASVLTKGTLKHDAPTLEAFQSDRAASLGASAGRRTFTLSLREPSRFDGDMFGLLHEVLTTPALAPDEVAREKRNQVASIRAREDQPLGLAFRHLTPFLFPGHSYGFYHLGQPETVEGFTRDDVKAFWARQAAQPWVMSVAGSFDREAVLRFAKSLPAPSGKPVSLDAPAWTPEKALDLRLPERNQAHLLLVFPTVGLAHKDTPALELLQSVLAGQSGLLFRDMRDKQGLGYTVTAMNWQSDLAGFMVLYIGTEPGKLEQAEAGFRKVIDQLHATALPDEELRRGKNQMRGDYYREHQRLGSRSSEAAMLTSQGYPLLFNREVIDKAEKLAPSDLERVARTYLDMNKVRVVKVLP	failed
MRIASLVPSITELLFDLGLADQLVARTGFCIHPEPAVRAVAKVGGTKDVKLDRLRALAPTHVVVNIDENRRETVDEIRTFVPHVIVTHPCAPEDNLALYRLLGGIFGRLEHHHHHH	failed
MRIAVVGATGRIGSKLTRTLLGAGHQVKALSRGGAALEALVEAGAEPFLGSFDTGAGALDTFFQDVEAAFLMVKTDWNNIEGHYPAVAQRFVDALRGSPVKLAVSLSAMGSDVDGKTGHFELFHHLDQRLNELNDIDMVHLRAAWFMENTLAWTASVAKYGRLAWFYEPDLKMPWVATDDIAGLAAKELTNPTGDHRVIRETGSEDLTMNELAAMIGREIGKPVEYRFIDRGRKEIENEYLARFGTPEHWLDDSRSADALNHGVVRFQGGDDVRPVLPTTMEAFLKTIWTPRYLEALASEGKPETFEMWCAR	failed
MRICLFLCLCLCMASPALAQVAVFPALSGKTDAQTLVVYSSLDEPLATPMIEGFQKANPDIAVHYEDMLTGEIYDRIVKETDAGKKTADFAFSSAMDLQVKLSNDGYAQRSDLAMSARWPAWANWRNTAYALTFEPAVFVYHKPSFTTEKPPATRAEFVDYLERHAKEVHGRIATYDIERSGVGFLFMSRDQEQFGDIWSVIKAMGAAGVKVYSTSSAILERVSDGRFVLGYNILGSYAADWASRHPDVGIVLPKDYTVVMSRIGLVPEAAANPELGRRYLEFFMSKEGQTIMARQLQIPAVSPEVAGENTANTMQAIHGAQLRPVPVSPGLMVYLDQVKRSR	not failed
MRIDKFLQSVGLVKRRVLATDMCNVGAVWLNGSCAKASKEVKAGDTISLHYLKGIEEYTILQIPALKNVPRKDTHLYIAPKTKE	failed
MRIFGKARHRPSASWRQATDRAFTLIGDGRYEDAGALLTRAADLEPWLSESWFNLALLHKFRHDWEQARAAGLRAVALLDRDIGAPDWWNVGIAATALQDWPLARRAWQAYGLRTPGGATDAGEPLGMDLGSAAVRLSPEGEAEVVWGRRLDPARVEVLSIPLPSSGRRWGEVVLHDGVPHGERTTSAGHSYPVFDEIELWAPSPVPTWVVLLEAATESDRDALEQLAADAGFAAEDWSSSVRLLCRMCSESRMPSDEGDGEHLDPHDHSEPGHPGPLGHRTDGQLWVPERECGVAAPAGLVKGLLDGWVADSPDSRDWRDLEEVC	failed
MRIFIIKSSTAHTAFDYSIKDIPGTSGRLDLICRSLNAAFQLSHSFRKNVRVYTVLYGPPDPPKTIRFEGAKIKPKTLNPDEVSTAKLIGKILNAGKDIKEPTKEREVLPGIYISRMTFEDVVRKNIKYNLYLLEENGVDIEKVKFPQDNVGFILGDQNGFTEEELNFLEGLVPKITIGPKPYLTSHVIAFVNIYLDRIGIP	failed
MRIHSIILLLFLLVISPVAGSISITDSTASKFDRYFYEGVRQREQENYAAAFDIFRYCHRLNPNDAALLSELGKLYIAIGRQEEGTRYLEQAYRLYPDNKNYGNILGAVYERQGRADDAVRLYEEMSEQFPSEDELRFKLANMYVQAGEIDKAIYIYNRMEAQNAVNAADASNYAEIRARLYLMTGQTNKALNELRRLCNRFPEVNEFRLKYAGTLLDSEKYDEAYEQLQLIARTDSTSGLYHFAMASYYLGTNEKEAAINEMIKVAADKDVAPEQKLPIILRFIGTDTDEEDAPKKEYNILLEKILASHPTEVDARLFYAELLEMQGDSIHAMEVCRPITEFAPKEERAWKFMLGRAVTGQNHTEVHRISEQARQYLPGVPLFYLYDAISYYIEKKGSEAKHILQEALEHIDAEKDPNGLSDIYSQLGDLAYEENKPEEAFANYEKALELNPRNVGVLNNYAYFLAKEGGDLAKAERMAAQCVKLLPDNAVSLDTYGWVFFLRENYTLAKLYIEKALGLAADNPDADVVEHHGDVLYMLGEKEKAMLEWKRAKEIGGGGSPMLDKKIEQGKYIPEKKK	failed
MRILADTNVIIDALTSREPWNKSAEEIFLMAANHTIEMYITASSATDIYYLIRKHLHNTETAKMIMGKLYSLTGILEVTADDCMDALASAISDYEDAVVEKVASRKDMDYIVTRNIKDYQAGGTKIILPDDFVKLVEEELEHHHHHH	failed
MRINLQSLGCRLNEAELESWAREFQAAGHRLVSETGDADLIVLNSCAVTAEAVRKSRQMIRRTQRLSPRARLVLSGCYATLHGDEAAALGVDLVVSNADKSRLVEIAARELALEAMPEFSTEPGEAALFALGRQRAFVKVQDGCRYRCTFCIVTVARGEERSRLPAEVIREIRRLQAEGVQEVVLTGVHLGGYGSDLGLPLDALIRSILQETEIPRLRLGSLEPWDLPPGFFDLFENPRFMPHLHLPLQSGSDTVLKRMARRCKSEEFARLADHARRQVPDINITTDIIVGFPGETEREWEESLQFIETIGFGDIHVFTYSVREGTKAAAMGGHVPAEIKKERSRVLHELALGQKRALLGRFVGREMPVLWENRRDGADRGYTPNYLRVAIQTPETGLTNRITPVRLVKVDASGEFLWCGPVTLPPAAPADTRWRR	failed
MRINTRRKKWAAVAVVTLVSVIASVIVTVIVVGTLDPQSLRPAIIVPLLVAPLATHWGAERLLEIDKLNQQLAHLNRIDQMTQLYNRACLLEKLEQEPEEAGMILIADIDHFKQINDTYGHDVGDLVIIEVARVLQRSSLPEGIAARFGGEEFVIYVPRLDLEAAEFRAEAIRQAVEAQSVMIDGRKLSCTISIGIEIRQMQENVGDVLKRADEALYRAKAQGRNQVVAARRLARAGKSRETAQARRAP	failed
MRIPYIDCGMNSLFFITLLGSFFTVAQANSSSDLLELPATNSALAIKSVLMAMTPNNDAILVVGERGHIINWQNDDNWQQLQSPVSVAITDVTILSDGSKVAVGHDGVILKVDSNSTTWRKVFTGKEITQFQIAQLKQQYQSLEQVILQTQDEDELEELTYQLDDLTFAIEDNQLELKSGPNKPLLSVTSTSNDTLFASGAYGILLSSKDKGETWQLVSNHLDNPDRFHLNTVIATADDQLYIVGENGMGFHSTDVGQTWSVMTLPYSGSLFGILANTVKTHTISTDDINSTKNKTQLVAFGLQGNIMVSLDGGGNWQHIKLPRSTSLLGGNFSKQGKVYLVGHGGVIVSFYPENLSTLTIKKHPSGAALSSVLVKDNSLILAGQFGISQWPIEAEE	failed
MRIQIQKLSYRDIDSFIELLDVFEEVFEMKNFEMPSVEHLEELLGKDDFFVFVARSEGTIVGGLTAYSLTQYFSKSPLLYIYDVAVMKRHQRKGIGKKLIMGIKDYCKDSDIGEIIVQADEADEHAIEFYQSTGAKAAKVVQFYYALNG	failed
MRISCMSSFLTSDVLIAFSVTFLAGLATLLGGAIVLFFKQPSLRLLSFGLAFSAGAMVYISLTEILNKSIHSFSEVFSAKVGFAFATFAFLTGVIAILLLDRCVPNPHTMLEKTTAQQLDQTQLRRTGLLTMLAITAHNFPEGLATFFATLDSPILGAPLAVAIAIHNIPEGIAIAVPVYMATGQKSYAIWASLLSGLAEPLGAALGYFILAPYMGATMYGIIFGLIAGVMVYLAMDELLPAAKKYSQGHETVYGLVTGMAALATSLVLFQWV	failed
MRISKMLVTELNIYPLKSARGIALKESAVSAEGLPGDRRAMLTDPSGHFITQRELPAIATVLARHEDGGMALSRERSGEIFARPSGQRMDVAVWKSIVSANIADDETNDTLSAWLGREVKLVFFDDAAKRIASLEWTGNETPVTFADGYQILVTTTASLAALNDNMRGNGEDAVGMERFRPNIVLETEEAWAEDRWAAIEIGGIRFDLVKPCARCIMTTQDQMTGSRDVPSPMKAMGRIRMSGDRRVPGPLFGWNVTPRGEGRLSVGDVARVVEERPEGWAIKRRLEHHHHHH	not failed
MRIVIAGGHGQIALRLERLLAARGDEVAGIVRKAEQADDLRAAGAEPVVLDLESASVEEVAERLRGADAAVFAAGAGPGSGVARKDTVDKAAAVLFADAAVRAGVRRFLIVSSMGADPGHQGDEIFDVYLRAKGEADAYVSSLDALDWTILRPGALTDDAGTGLVRLEAHTGRGPVPRDDVAAVLAELVDTPATNGLALELISGSAPVSVAVKSVAGN	failed
MRKARGIKLIAVFLVAAVVNVVFGFCVLAKAQILKKPAENSYVFDYANLIDSSDEEEMRALAKEIEDKSKAEIVVVTVETLGSYTIEEYANELFRSWEIGDKELNNGVLILVNKENLLLGKKGRIRIEVGYGLEGAITDGKAGRTLDEYAIPAFERNEYSKGIRDTFLAVASEVANEYGLKIDGLSGYGASEDVNENEVTSDGNAENVVDVPFGLGIGAGLIVGFGLFFFIIFLMVIVILYNQPYAGKKYEWTWKNGKWEKKVYVYRYDDLWKNNRSFFDDSDDSDSFGSGGGFGGFGGGSSGGGGASR	failed
